Experimental data: patent publication US20120121533, “NUCLEIC ACID LIGANDS TO LL37” (BIOTEX, INC., published 2012)

Molecular target: T1, LL37 (human cathelicidin peptide LL-37) (Homo sapiens, UniProt P49913 P49913:134-170)
T1 chain: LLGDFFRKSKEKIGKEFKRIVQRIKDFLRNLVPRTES
Experiment: SPR; biotinylated aptamer immobilised, increasing LL37 added; nonsense DNA on reference channel
Conditions: label: biotin (immobilised on neutravidin SPR chip)
Description: Aptamers were immobilized to the test channel of a neutravidin-coated SPR chip via standard biotin modification. A nonsense DNA was immobilized on the reference channel to identically match the electrostatic conditions of each channel, and then increasing concentrations of target protein LL37 were added such that no regeneration steps are required. The differential response to each dose was extracted and fit to a binding isotherm model to accurately determine Kd.

With ACTGGGTCTCACCATCGAAAATCGAAATGACTAAAAGGCC (ssDNA) [SEQ7 (Apta#222)] the Kd was 118 nM.
